Values of other authors in patent publication US7208138B2, “Contrast enhancement agent for magnetic resonance imaging” (Duke University, priority 2001, dated 2007).

Columns and labels:
[1] = time to clearance of one half from the bloodstream
[2] = fraction of the relaxivity of free gadolinium ion
TG = target: T1, TG (Homo sapiens, UniProt P21980)
T1 sequence (P21980 1-687): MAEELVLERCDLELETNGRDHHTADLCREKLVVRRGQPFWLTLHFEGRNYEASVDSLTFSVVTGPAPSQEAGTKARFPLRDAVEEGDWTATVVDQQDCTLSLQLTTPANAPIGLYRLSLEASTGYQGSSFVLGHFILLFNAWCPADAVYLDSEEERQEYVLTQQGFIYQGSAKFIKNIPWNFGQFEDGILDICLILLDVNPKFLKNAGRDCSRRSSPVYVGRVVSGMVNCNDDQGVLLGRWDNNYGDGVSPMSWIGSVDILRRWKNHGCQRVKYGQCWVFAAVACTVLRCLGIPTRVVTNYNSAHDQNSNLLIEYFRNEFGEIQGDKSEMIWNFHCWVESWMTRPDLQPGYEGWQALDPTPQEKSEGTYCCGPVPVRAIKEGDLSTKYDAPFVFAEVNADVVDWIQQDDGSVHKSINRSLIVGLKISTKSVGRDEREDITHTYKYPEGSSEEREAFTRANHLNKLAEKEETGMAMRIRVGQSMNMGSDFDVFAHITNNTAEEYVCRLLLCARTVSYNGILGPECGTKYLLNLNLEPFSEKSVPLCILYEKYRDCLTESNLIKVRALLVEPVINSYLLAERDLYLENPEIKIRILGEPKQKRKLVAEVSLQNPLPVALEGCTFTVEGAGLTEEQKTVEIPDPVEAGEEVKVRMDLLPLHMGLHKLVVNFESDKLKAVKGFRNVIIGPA

fXIIIa = target: T2, fXIIIa (Homo sapiens, UniProt P00488)
T2 sequence (P00488 39-732 limits assumed): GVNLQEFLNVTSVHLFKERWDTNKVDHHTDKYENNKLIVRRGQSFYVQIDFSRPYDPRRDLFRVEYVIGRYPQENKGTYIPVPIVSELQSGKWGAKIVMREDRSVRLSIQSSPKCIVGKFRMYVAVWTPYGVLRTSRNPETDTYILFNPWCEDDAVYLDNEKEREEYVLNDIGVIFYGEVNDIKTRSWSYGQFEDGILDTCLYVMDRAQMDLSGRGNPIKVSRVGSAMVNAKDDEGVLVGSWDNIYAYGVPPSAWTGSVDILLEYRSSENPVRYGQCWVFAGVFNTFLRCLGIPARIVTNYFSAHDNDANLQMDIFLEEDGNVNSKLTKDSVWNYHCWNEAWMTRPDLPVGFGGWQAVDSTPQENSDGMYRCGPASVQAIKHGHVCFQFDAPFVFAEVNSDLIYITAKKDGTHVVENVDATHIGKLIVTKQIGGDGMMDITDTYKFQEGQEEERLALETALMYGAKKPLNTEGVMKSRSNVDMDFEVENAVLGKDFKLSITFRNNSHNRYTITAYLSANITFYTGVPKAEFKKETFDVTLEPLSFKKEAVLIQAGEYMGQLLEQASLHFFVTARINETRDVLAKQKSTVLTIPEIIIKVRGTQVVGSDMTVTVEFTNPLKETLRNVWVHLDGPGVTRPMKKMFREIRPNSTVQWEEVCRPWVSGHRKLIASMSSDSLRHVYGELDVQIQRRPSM

TG crosslinking / recognition (TG)	fXIIIa crosslinking / recognition (fXIIIa)	Molecule	cleared from the bloodstream (½) [1]	relaxivity of the complex relative to free gadolinium ion [2]
		O=C([O-])CN(CCN(CC(=O)[O-])CC(=O)[O-])CCN(CC(=O)[O-])CC(=O)[O-].[Gd+3] [Gd-DTPA]	20 min	about one-half
recognized	recognized	SEQ ID NO: 2: peptide of amino acid sequence NQEQVSP, the TG and fXIIIa crosslinking motif (listed as Homo sapiens)		
inert	inert	SEQ ID NO: 3: peptide NGEQVSP, glycine at position 2; control peptide in crosslinking assays (listed as Homo sapiens)		
